T1: human EpCAM (human, UniProt P16422 24-314)
T1 sequence (looked up): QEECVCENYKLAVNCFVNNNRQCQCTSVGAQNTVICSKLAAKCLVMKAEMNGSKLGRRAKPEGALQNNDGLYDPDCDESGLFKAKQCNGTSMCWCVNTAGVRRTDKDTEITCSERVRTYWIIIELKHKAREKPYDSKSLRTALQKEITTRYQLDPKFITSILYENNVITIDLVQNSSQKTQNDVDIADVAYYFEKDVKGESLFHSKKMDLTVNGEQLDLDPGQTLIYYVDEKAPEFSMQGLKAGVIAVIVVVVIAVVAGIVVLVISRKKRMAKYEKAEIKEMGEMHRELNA


target: T1, human EpCAM; experiment: cell-based or functional assay

Row | Binder | IC50 (nM), cytotoxicity on COLO205 cells (CellTiterGlo)
1 | ISOP130R5CP6_A06_V78A vcMMAF conjugate (designed binder, vcMMAF conjugated via the sortase reaction at the C-terminal sortase tag) MLPAPKNLVVSRVTEDSARLSWKHYRPGARFDSFLIQYQESEKVGEAIVLTVPGSERSYDLTGLKPGTEYTVSIYGVATALPSYYSSNPLSAIFTTGGHHHHHHGGLPETGGH | 4.5 nM
2 | ISOP130R5CP6_A06_P27A vcMMAF conjugate (designed binder, vcMMAF conjugated via the sortase reaction at the C-terminal sortase tag) MLPAPKNLVVSRVTEDSARLSWKHYRAGARFDSFLIQYQESEKVGEAIVLTVPGSERSYDLTGLKPGTEYTVSIYGVVTALPSYYSSNPLSAIFTTGGHHHHHHGGLPETGGH | 42.6 nM
3 | ISOP130R5CP6_A06_Y85A vcMMAF conjugate (designed binder, vcMMAF conjugated via the sortase reaction at the C-terminal sortase tag) MLPAPKNLVVSRVTEDSARLSWKHYRPGARFDSFLIQYQESEKVGEAIVLTVPGSERSYDLTGLKPGTEYTVSIYGVVTALPSYASSNPLSAIFTTGGHHHHHHGGLPETGGH | 564 nM
4 | ISOP130R5CP6_A06_H24A vcMMAF conjugate (designed binder, vcMMAF conjugated via the sortase reaction at the C-terminal sortase tag) MLPAPKNLVVSRVTEDSARLSWKAYRPGARFDSFLIQYQESEKVGEAIVLTVPGSERSYDLTGLKPGTEYTVSIYGVVTALPSYYSSNPLSAIFTTGGHHHHHHGGLPETGGH | 2.6 nM
5 | ISOP130R5CP6_A06_L81A vcMMAF conjugate (designed binder, vcMMAF conjugated via the sortase reaction at the C-terminal sortase tag) MLPAPKNLVVSRVTEDSARLSWKHYRPGARFDSFLIQYQESEKVGEAIVLTVPGSERSYDLTGLKPGTEYTVSIYGVVTAAPSYYSSNPLSAIFTTGGHHHHHHGGLPETGGH | 76 nM
6 | ISOP130R5CP6_A06_G28A vcMMAF conjugate (designed binder, vcMMAF conjugated via the sortase reaction at the C-terminal sortase tag) MLPAPKNLVVSRVTEDSARLSWKHYRPAARFDSFLIQYQESEKVGEAIVLTVPGSERSYDLTGLKPGTEYTVSIYGVVTALPSYYSSNPLSAIFTTGGHHHHHHGGLPETGGH | 0.8 nM
7 | ISOP130R5CP6_A06_Y84A vcMMAF conjugate (designed binder, vcMMAF conjugated via the sortase reaction at the C-terminal sortase tag) MLPAPKNLVVSRVTEDSARLSWKHYRPGARFDSFLIQYQESEKVGEAIVLTVPGSERSYDLTGLKPGTEYTVSIYGVVTALPSAYSSNPLSAIFTTGGHHHHHHGGLPETGGH | 0.4 nM
8 | ISOP130R5CP6_A06_Y25A vcMMAF conjugate (designed binder, vcMMAF conjugated via the sortase reaction at the C-terminal sortase tag) MLPAPKNLVVSRVTEDSARLSWKHARPGARFDSFLIQYQESEKVGEAIVLTVPGSERSYDLTGLKPGTEYTVSIYGVVTALPSYYSSNPLSAIFTTGGHHHHHHGGLPETGGH | 127 nM
9 | ISOP130R5CP6_A06_K23A vcMMAF conjugate (designed binder, vcMMAF conjugated via the sortase reaction at the C-terminal sortase tag) MLPAPKNLVVSRVTEDSARLSWAHYRPGARFDSFLIQYQESEKVGEAIVLTVPGSERSYDLTGLKPGTEYTVSIYGVVTALPSYYSSNPLSAIFTTGGHHHHHHGGLPETGGH | 1 nM
10 | ISOP130R5CP6_A06_R30A vcMMAF conjugate (designed binder, vcMMAF conjugated via the sortase reaction at the C-terminal sortase tag) MLPAPKNLVVSRVTEDSARLSWKHYRPGAAFDSFLIQYQESEKVGEAIVLTVPGSERSYDLTGLKPGTEYTVSIYGVVTALPSYYSSNPLSAIFTTGGHHHHHHGGLPETGGH | 0.8 nM
11 | ISOP130R5CP6_A06_S83A vcMMAF conjugate (designed binder, vcMMAF conjugated via the sortase reaction at the C-terminal sortase tag) MLPAPKNLVVSRVTEDSARLSWKHYRPGARFDSFLIQYQESEKVGEAIVLTVPGSERSYDLTGLKPGTEYTVSIYGVVTALPAYYSSNPLSAIFTTGGHHHHHHGGLPETGGH | 1.4 nM
12 | ISOP130R5CP6_A06_T79A vcMMAF conjugate (designed binder, vcMMAF conjugated via the sortase reaction at the C-terminal sortase tag) MLPAPKNLVVSRVTEDSARLSWKHYRPGARFDSFLIQYQESEKVGEAIVLTVPGSERSYDLTGLKPGTEYTVSIYGVVAALPSYYSSNPLSAIFTTGGHHHHHHGGLPETGGH | 0.5 nM
13 | ISOP130R5CP6_A06_P82A vcMMAF conjugate (designed binder, vcMMAF conjugated via the sortase reaction at the C-terminal sortase tag) MLPAPKNLVVSRVTEDSARLSWKHYRPGARFDSFLIQYQESEKVGEAIVLTVPGSERSYDLTGLKPGTEYTVSIYGVVTALASYYSSNPLSAIFTTGGHHHHHHGGLPETGGH | 326 nM
14 | ISOP130R5CP6_A06_R26A vcMMAF conjugate (designed binder, vcMMAF conjugated via the sortase reaction at the C-terminal sortase tag) MLPAPKNLVVSRVTEDSARLSWKHYAPGARFDSFLIQYQESEKVGEAIVLTVPGSERSYDLTGLKPGTEYTVSIYGVVTALPSYYSSNPLSAIFTTGGHHHHHHGGLPETGGH | 507 nM
15 | ISOP130R5CP6_A06_S86A vcMMAF conjugate (designed binder, vcMMAF conjugated via the sortase reaction at the C-terminal sortase tag) MLPAPKNLVVSRVTEDSARLSWKHYRPGARFDSFLIQYQESEKVGEAIVLTVPGSERSYDLTGLKPGTEYTVSIYGVVTALPSYYASNPLSAIFTTGGHHHHHHGGLPETGGH | 1.3 nM
16 | ISOP130R5CP6_A06srt vcMMAF conjugate (designed binder, vcMMAF conjugated via the sortase reaction at the C-terminal sortase tag (Gly3-vcMMAF)) MLPAPKNLVVSRVTEDSARLSWKHYRPGARFDSFLIQYQESEKVGEAIVLTVPGSERSYDLTGLKPGTEYTVSIYGVVTALPSYYSSNPLSAIFTTGGHHHHHHGGLPETGGH | 1.6 nM

target: prostate specific membrane antigen (PSMA) (UniProt Q04609 1-750, limits assumed); experiment: cell-based or functional assay
Sequence (Q04609 whole entry): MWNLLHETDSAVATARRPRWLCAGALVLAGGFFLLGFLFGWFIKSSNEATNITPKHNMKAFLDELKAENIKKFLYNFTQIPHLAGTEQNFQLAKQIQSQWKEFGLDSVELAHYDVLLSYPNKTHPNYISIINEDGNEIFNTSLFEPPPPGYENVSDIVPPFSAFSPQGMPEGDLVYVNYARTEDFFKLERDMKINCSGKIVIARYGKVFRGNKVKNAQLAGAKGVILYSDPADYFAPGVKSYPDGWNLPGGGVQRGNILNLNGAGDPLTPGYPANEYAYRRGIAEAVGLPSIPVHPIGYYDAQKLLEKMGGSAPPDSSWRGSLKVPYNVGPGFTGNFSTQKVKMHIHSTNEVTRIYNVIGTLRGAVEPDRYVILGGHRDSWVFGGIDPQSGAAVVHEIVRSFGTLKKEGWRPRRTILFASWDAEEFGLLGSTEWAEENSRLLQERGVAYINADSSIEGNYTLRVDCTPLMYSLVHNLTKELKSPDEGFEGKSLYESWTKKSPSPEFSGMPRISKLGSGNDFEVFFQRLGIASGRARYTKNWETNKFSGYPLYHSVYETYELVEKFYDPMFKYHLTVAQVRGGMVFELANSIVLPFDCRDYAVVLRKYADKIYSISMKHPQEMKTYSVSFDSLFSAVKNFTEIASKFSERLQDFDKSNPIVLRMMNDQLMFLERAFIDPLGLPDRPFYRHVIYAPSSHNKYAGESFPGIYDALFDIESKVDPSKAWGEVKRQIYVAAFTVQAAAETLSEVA

Row | Binder | LNCaP cells IC50 (nM), cytotoxicity (CellTiterGlo) | MDA-PCA-2B cells IC50 (nM), cytotoxicity (CellTiterGlo) | VCAP cells IC50 (nM), cytotoxicity (CellTiterGlo)
17 | P233FR9P1001-H3-1 vcMMAF conjugate (designed binder, vc-MMAF conjugated through a sortase tag (Gly3-vc-MMAF, sortase A)) LPAPKNLVVSRVTEDSARLSWTAPDAAFDSFPIGYWEWDDDGEAIVLTVPGSERSYDLTGLKPGTEYHVYIAGVKGGQWSFPLSAIFTT | 0.4 nM | 4.6 nM | 15.2 nM
18 | P233FR9_H10 vcMMAF conjugate (designed binder, vc-MMAF conjugated through a sortase tag (Gly3-vc-MMAF, sortase A)) LPAPKNLVVSRVTEDSARLSWTAPDAAFDSFAIGYWEWDDDGEAIVLTVPGSERSYDLTGLKPGTEYPVYIAGVKGGQWSFPLSAIFTT | 0.5 nM | 5.8 nM | 25.9 nM
19 | P234CR9_H01 vcMMAF conjugate (designed binder, vc-MMAF conjugated through a sortase tag (Gly3-vc-MMAF, sortase A)) LPAPKNLVVSRVTEDSARLSWEWWVIPGDFDSFLIQYQESEKVGEAIVLTVPGSERSYDLTGLKPGTEYTVSIYGVVNSGQWNDTSNPLSAIFTT | 22.6 nM | 151 nM | 401 nM
20 | P229CR5P819_H11 vcMMAF conjugate (designed binder, vc-MMAF conjugated through a sortase tag (Gly3-vc-MMAF, sortase A)) LPAPKNLVVSRVTEDSARLSWDIDEQRDWFDSFLIQYQESEKVGEAIVLTVPGSERSYDLTGLKPGTEYTVSIYGVYHVYRSSNPLSAIFTT | 9.3 nM | 107 nM | 231 nM

target: T1, human EpCAM; experiment: cell-based or functional assay; remark: another data set of the same source

Row | Binder | % viable COLO205 cells, 1 nM
21 | ISOP130R5CP7_G02srt vcMMAF conjugate (designed binder, vcMMAF conjugated via the sortase reaction at the C-terminal sortase tag (Gly3-vcMMAF)) MLPAPKNLVVSRVTEDSARLSWKHYRPGARFDSFLIQYQESEKVGEAIILTVPGSERSYDLTGLKPGTEYTVSIYGVVTHALPTAYTSNPLSAIFTTGGHHHHHHGGLPETGGH | 39%
22 | ISOP130R5CP6_A02srt vcMMAF conjugate (designed binder, vcMMAF conjugated via the sortase reaction at the C-terminal sortase tag (Gly3-vcMMAF)) MLPAPKNLVVSRVTEDSARLSWKHYRPGARFDSFLIQYQESEKVGEAIVLTVPGSERSYDLTGLKPGTEYTVSIYGVVNNALPRWYISNPLSAIFTTGGHHHHHHGGLPETGGH | 66%
23 | ISOP130R5CP6_F02srt vcMMAF conjugate (designed binder, vcMMAF conjugated via the sortase reaction at the C-terminal sortase tag (Gly3-vcMMAF)) MLPAPKNLVVSRVTEDSARLSWDQYRKYAGFDSFLIQYQESEKVGEAIVLTVPGSERSYDLTGLKPGTEYTVSIYGVVTHALPQTYQSNPLSAIFTTGGHHHHHHGGLPETGGH | 90%
24 | ISOP130R5CP7_F11srt vcMMAF conjugate (designed binder, vcMMAF conjugated via the sortase reaction at the C-terminal sortase tag (Gly3-vcMMAF)) MLPAPKNLVVSRVTEDSARLSWKHYRPGARFDSFLIQYQESEKVGEAIVLTVPGSERSYDLTGLKPGTEYTVSIYGVIWGALPNSYSSNPLSAIFTTGGHHHHHHGGLPETGGH | 81%
25 | ISOP130R5CP6_F01srt vcMMAF conjugate (designed binder, vcMMAF conjugated via the sortase reaction at the C-terminal sortase tag (Gly3-vcMMAF)) MLPAPKNLVVSRVTEDSARLSWKHYRPGARFDSFLIQYQESEKVGEAIVLTVPGSERSYDLTGLKPGTEYTVSIYGVVTALPSNYISNPLSAIFTTGGHHHHHHGGLPETGGH | 43%
26 | ISOP130R5CP6_E08srt vcMMAF conjugate (designed binder, vcMMAF conjugated via the sortase reaction at the C-terminal sortase tag (Gly3-vcMMAF)) MLPAPKNLVVSRVTEDSARLSWKHYRPGARFDSFLIQYQESEKVGEAIVLTVPGSERSYDLTGLKPGTEYTVSIYGVVAALPNNYASNPLSAIFTTGGHHHHHHGGLPETGGH | 66%
27 | ISOP130R5CP6_A06srt vcMMAF conjugate (designed binder, vcMMAF conjugated via the sortase reaction at the C-terminal sortase tag (Gly3-vcMMAF)) MLPAPKNLVVSRVTEDSARLSWKHYRPGARFDSFLIQYQESEKVGEAIVLTVPGSERSYDLTGLKPGTEYTVSIYGVVTALPSYYSSNPLSAIFTTGGHHHHHHGGLPETGGH | 67%

target: T1, human EpCAM; experiment: cell-based or functional assay; remark: another data set of the same source

Row | Binder | Cytotoxicity Assays of CDCs, A431 cells IC50 (nm) | Cytotoxicity Assays of CDCs, HT-29 cells IC50 (nm)
28 | ISOP130R5CP6_A06_cys vcMMAF conjugate (designed binder, vc-MMAF on the C-terminal cysteine (cysteine-maleimide chemistry)) MLPAPKNLVVSRVTEDSARLSWKHYRPGARFDSFLIQYQESEKVGEAIVLTVPGSERSYDLTGLKPGTEYTVSIYGVVTALPSYYSSNPLSAIFTTGGHHHHHHGGC | 9.9 nm | 6.7 nm
29 | ISOP130R5CP7_G04_cys vcMMAF conjugate (designed binder, vc-MMAF on the C-terminal cysteine (cysteine-maleimide chemistry)) MLPAPKNLVVSRVTEDSARLSWKHYRPGARFDSFLIQYQESEKVGEAIVLTVPGSERSYDLTGLKPGTEYTVSIYGVAAHAIPRYASNPLSAIFTTGGHHHHHHGGC | 48.1 nm | 37.7 nm
30 | Iso124R5AB_D6_cys vcMMAF conjugate (designed binder, vc-MMAF on the C-terminal cysteine (cysteine-maleimide chemistry)) MLPAPKNLVVSRVTEDSARLSWHNHRPQFDSFLIQYQESEKVGEAIVLTVPGSERSYDLTGLKPGTEYTVSIYGVAIAVPWNYQSNPLSAIFTTGGHHHHHHGGC | 59.2 nm | 38.3 nm
